Patent publication US20180037892, “EPCAM APTAMERS AND CONJUGATES THEREOF” (Deakin University, published 2018)

Legend:
[1] = biological target: T1, EpCAM (UniProt P16422 P16422:24-314); assay: flow; HEY cells, 37 C; conditions: tags: native EpCAM on HT29 or HEY cells, label: 5' TYE665, hairpin
T1 sequence: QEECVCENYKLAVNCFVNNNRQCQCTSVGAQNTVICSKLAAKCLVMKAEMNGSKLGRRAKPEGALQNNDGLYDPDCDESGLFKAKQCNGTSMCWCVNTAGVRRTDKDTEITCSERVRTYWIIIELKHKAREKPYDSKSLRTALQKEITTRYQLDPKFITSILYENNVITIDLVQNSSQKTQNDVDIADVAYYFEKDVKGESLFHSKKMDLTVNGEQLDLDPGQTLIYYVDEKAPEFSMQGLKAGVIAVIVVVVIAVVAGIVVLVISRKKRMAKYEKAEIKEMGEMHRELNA
Description: (§1) The equilibrium dissociation constant (KD) of each DNA EpCAM aptamer (Ep7, Ep8 and Ep9) was determined by measuring its binding to native EpCAM protein expressed on the cell surface using flow cytometry. HT29, HEY and HEK293T (5×10⁵) cells were first incubated with blocking buffer (PBS containing 10% FCS, 1 mg/mL tRNA, 1 mg/mL BSA) for 30 minutes followed by a single wash with binding buffer (PBS containing 10% FCS, 1 mg/mL tRNA, 1 mg/mL BSA) prior to incubation with serial dilutions of concentrations of the respective TYE665-labelled aptamers (0 to 200 nM) in binding buffer for 30 min at 37° C. The cells were washed three times with PBS and resuspended in PBS prior to flow cytometric analysis. The fluorescent intensity was determined using a FACS Canto II flow cytometer (Becton Dickinson), counting 10,000 events for each sample. The mean fluorescent intensity of each concentration was subtracted from that of the auto fluorescent control and the KD for each aptamer was calculated from the normalised values for fluorescent intensity.

[2] = biological target: T1, EpCAM; assay: flow; HEY cells, 5 mM MgCl2 folding, 37 C; conditions: tags: native EpCAM on HT29 or HEY cells; label: 5' TYE665; two hairpins
Description: (§2) In order to determine the binding affinity (equilibrium dissociation constant KD) of the aptamers. Binding assays were conducted to measure the binding to native EpCAM protein expressed on the cell surface. The aptamers were incubated with the cells at concentrations ranging from 0 nM to 400 nM. These were subsequently analysed by flow cytometry. Aptamers were thawed from storage (−20° C.) prior to use. These were then diluted via serial dilutions with phosphate buffered saline (PBS) in order to achieve the desired concentrations. PBS was supplemented with a MgCl₂ concentration appropriate for the aptamer (1 mM for anti-TfR aptamers; 5 mM for conjugate aptamers). Aptamers were then folded into their 3D structures using a thermocycler (85° C. for 5 minutes, slow cooling to 22° C. over 10 minutes and 37° C. for 15 minutes).
(§3) The binding affinities of aptamers Bi1, Bi2 and Bi3 were determined semi-quantitatively via flow cytometry, using bEnd.3 cells to assess reactivity with TfR, HEY cells to determine EpCAM specificity and the MOLT4 cell line as a negative control. Three independent binding assays were performed for these aptamer against all three cell lines (bEnd.3, HEY and MOLT4).

[3] = biological target: T2, Transferrin receptor (TfR) (Mus musculus, UniProt Q62351 Q62351:1-763); assay: flow; bEnd.3 cells, 5 mM MgCl2 folding, 37 C; conditions: tags: native TfR on bEnd.3 mouse cerebral endothelial cells; chain copies: 2; label: 5' TYE665; two hairpins
Description: as §2, §3

[4] = biological target: T2, Transferrin receptor (TfR); assay: flow; bEnd.3 cells, 5 mM MgCl2 folding, 37 C; text gives 305.5; conditions: tags: native TfR on bEnd.3 mouse cerebral endothelial cells; chain copies: 2; label: 5' TYE665; two hairpins
Description: as §2, §3

[5] = biological target: T2, Transferrin receptor (TfR); assay: flow; bEnd.3 cells, 5 mM MgCl2 folding, 37 C; not internalised; conditions: tags: native TfR on bEnd.3 mouse cerebral endothelial cells; chain copies: 2; label: 5' TYE665; two hairpins
Description: as §2, §3

[6] = biological target: T1, EpCAM; assay: flow; HEY cells, scrambled EpCAM loop, 5 mM MgCl2 folding, 37 C; conditions: tags: native EpCAM on HT29 or HEY cells; label: 5' TYE665; two hairpins
Description: as §2, §3

[7] = biological target: T1, EpCAM; assay: flow; HEY cells, 37 C; not internalised; conditions: tags: native EpCAM on HT29 or HEY cells; label: 5' TYE665; hairpin
[8] = biological target: T2, Transferrin receptor (TfR); assay: flow; bEnd.3 cells, 1 mM MgCl2 folding, 37 C; conditions: tags: native TfR on bEnd.3 mouse cerebral endothelial cells; chain copies: 2; label: 5' TYE665; hairpin
[9] = biological target: T1, EpCAM; assay: flow; HT29 cells, 37 C; no binding to EpCAM-negative HEK293T and K562; conditions: tags: native EpCAM on HT29 or HEY cells; label: 5' TYE665; hairpin
Description: as §1

[10] = biological target: T2, Transferrin receptor (TfR); assay: flow; bEnd.3 cells, 1 mM MgCl2 folding, 37 C; text gives 365.6; conditions: tags: native TfR on bEnd.3 mouse cerebral endothelial cells; chain copies: 2; label: 5' TYE665; hairpin

T2 sequence (Q62351 whole entry, one chain of several): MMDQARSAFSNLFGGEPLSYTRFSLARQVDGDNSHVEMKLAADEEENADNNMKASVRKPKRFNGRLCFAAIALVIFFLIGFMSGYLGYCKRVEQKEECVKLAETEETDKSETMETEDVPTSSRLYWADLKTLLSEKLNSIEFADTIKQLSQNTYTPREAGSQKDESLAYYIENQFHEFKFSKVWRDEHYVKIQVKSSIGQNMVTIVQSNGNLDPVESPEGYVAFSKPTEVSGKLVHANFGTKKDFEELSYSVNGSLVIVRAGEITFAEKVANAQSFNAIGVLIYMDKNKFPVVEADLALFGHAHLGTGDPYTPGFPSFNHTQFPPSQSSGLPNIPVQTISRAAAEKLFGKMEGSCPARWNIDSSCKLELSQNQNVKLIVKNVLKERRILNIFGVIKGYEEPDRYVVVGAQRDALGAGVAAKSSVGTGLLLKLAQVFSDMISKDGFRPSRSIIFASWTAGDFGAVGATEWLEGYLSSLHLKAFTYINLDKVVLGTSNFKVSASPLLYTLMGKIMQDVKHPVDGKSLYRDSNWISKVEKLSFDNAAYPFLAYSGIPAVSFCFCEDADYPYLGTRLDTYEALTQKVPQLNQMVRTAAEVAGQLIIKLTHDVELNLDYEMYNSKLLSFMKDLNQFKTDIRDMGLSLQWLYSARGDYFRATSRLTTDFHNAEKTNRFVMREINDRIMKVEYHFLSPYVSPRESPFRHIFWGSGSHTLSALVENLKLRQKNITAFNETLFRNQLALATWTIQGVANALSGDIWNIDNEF

Which Kd ([1]; 10 bp stem) does the source give for CGCGCGCCGCAGGTTGCGTGCGGCGCGCGT (ssDNA, 3' inverted dT [30 (3' inverted dT)]) [Ex Ep7 (extended Ep7)] here?
The Kd was 63.7 nM.

What does the source list for GCGCGGTACCGCGCTAACGGAGGTTGCGTCCGT (ssDNA, 3' inverted dT) [Bi3 (TEPP, TfR3 loop + Ep7 loop conjugate)]?
Kd [2]: 219 nM; Kd [3]: 342 nM

For GCGCGGGCCCGCGCTAACGGAGGTTGCGTCCGT (ssDNA, 3' inverted dT) [Bi2 (TfR2 loop + Ep7 loop conjugate)], which Kd [2] is on record?
Its Kd is 205 nM.

And the Kd [4]?
Its Kd is 305 nM.

With GCGCGTGCACGCGCTAACGGATTCCTTTTCCGT (ssDNA, 3' inverted dT) [Bi1 (TENN conjugate, TfR1 loop + scrambled Ep7 loop)] as the binder, how does the Kd [5] read?
The Kd was 1690 nM.

What about the Kd [6] of the same binder?
The Kd was 921 nM.

For CGCGCGCCGCATTCCTTTTGCGGCGCGCGT (ssDNA, 3' inverted dT [30 (3' inverted dT)]) [Scr Ex Ep7 (scrambled extended Ep7)], which Kd [7] is on record?
Its Kd is 521 nM.

GCGTGGGCCCACGC (ssDNA, 3' inverted dT) [TfR2] was tested. Which Kd [8] did it give?
The Kd was 525 nM.

Which Kd [9] does the source give for GGGGTTGGCCCCT (ssDNA, 3' inverted dT [13 (3' inverted dT)]) [Ep9] here?
The Kd was 31.8 nM.

And the Kd [1]?
Its Kd is 266 nM.

How did the Kd [10] turn out when GCGTGGTACCACGC (ssDNA, 3' inverted dT) [TfR3] was run?
Its Kd is 366 nM.

Which Kd [8] does the source give for GCGTGTGCACACGC (ssDNA, 3' inverted dT) [TfR1] here?
The Kd was 5760 nM.
